The supplement of paper PMC10126150
± gives the standard deviation of the averaged measurements.

test system: ATP; test: switch fluorescence ratio, 500 uM ATP over buffer (Cy3 cluster intensity, sum of 5 cycles each) (fold (ratio)); higher = stronger signal-on switching upon ATP binding; sequences stand for … in TCGTCGGCAGCGTCAGATGTGTATAAGAGACAGTTTTTTTTTTTTTTTTTTTTTTTTT…TC; details: aptamer strand: ATP DNA aptamer (quencher-CACCTGGGGGAGTATTGCGGAGGAAGG + anchor), 100 nM annealed; ATP concentration: 500 uM
Procedure, shortened: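 Values give the fluorescence ratio for each switch-domain sequence, averaged from per-cluster ratios of summed target-cycle to summed buffer-cycle Cy3 intensity. The Cy3-labelled switching-strand clusters sat on a modified Illumina MiSeq flow-cell, were annealed to 100 nM quencher-labelled ATP aptamer, and were imaged in selection buffer, then after 15 min with 500 uM ATP at 22 °C. Five cycles ran with NaOH stripping and re-annealing between them, and clusters outside 100-1000 RFU were excluded.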
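Also: ATP exposure 15 min at 22 °C before imaging.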

AGTTCTTTGT and AGTTGAAATA are within error of each other in switch fluorescence ratio: 0.985 ± 0.024 for the first, 0.9816 ± 0.0066 for the second.

Compared with AGTTGAATTT, AGTTGAGAG is higher in switch fluorescence ratio: 0.9885 ± 0.0016 for the first, 1.03 ± 0.017 for the second.

AGTTGAGTCT and AGTTGAGTTA are within error of each other in switch fluorescence ratio: 0.981 ± 0.067 for the first, 1 ± 0.011 for the second.

AGTTGATGGT and AGTTGGATGC are within error of each other in switch fluorescence ratio: 0.96898 ± 0.00096 for the first, 0.965 ± 0.068 for the second.

AGTTGGCTGA and AGTTGGGAGC are within error of each other in switch fluorescence ratio: 0.9967 ± 0.0063 for the first, 0.991 ± 0.02 for the second.

AGTTGGGTGG and AGTTGGTAG are within error of each other in switch fluorescence ratio: 1.04 ± 0.026 for the first, 1.02 ± 0.033 for the second.

AGTTGGTGTT and AGTTGTAAAG are within error of each other in switch fluorescence ratio: 0.958 ± 0.026 for the first, 0.985 ± 0.018 for the second.

AGTTGTCAGT and AGTTGTCCAT are within error of each other in switch fluorescence ratio: 0.983 ± 0.028 for the first, 0.9767 ± 0.0079 for the second.

AGTTGTGGTA and AGTTGTGTTT are within error of each other in switch fluorescence ratio: 1.003 ± 0.01 for the first, 0.966 ± 0.043 for the second.

AGTTGTTGG and AGTTTAAAAG are within error of each other in switch fluorescence ratio: 0.982 ± 0.011 for the first, 1.01 ± 0.024 for the second.

Going from AGTTTACCGG to AGTTTAGATG, the switch fluorescence ratio falls from 1.01 ± 0.022 to 0.968 ± 0.02.

AGTTTAGGAC and AGTTTATTGG are within error of each other in switch fluorescence ratio: 0.985 ± 0.031 for the first, 0.999 ± 0.0086 for the second.

AGTTTCCTTT and AGTTTCGGGT are within error of each other in switch fluorescence ratio: 0.978 ± 0.032 for the first, 0.9636 ± 0.0082 for the second.

AGTTTCGGTA and AGTTTCTTAT are within error of each other in switch fluorescence ratio: 0.977 ± 0.018 for the first, 0.995 ± 0.028 for the second.

AGTTTCTTGT and AGTTTGAAAT are within error of each other in switch fluorescence ratio: 0.987 ± 0.03 for the first, 1.01 ± 0.03 for the second.

AGTTTGAGTT and AGTTTGATG are within error of each other in switch fluorescence ratio: 1.02 ± 0.052 for the first, 0.986 ± 0.041 for the second.

AGTTTGGGC and AGTTTGGTGG are within error of each other in switch fluorescence ratio: 0.9604 ± 0.0015 for the first, 0.942 ± 0.067 for the second.

AGTTTGTCCC and AGTTTGTGAC are within error of each other in switch fluorescence ratio: 1.02 ± 0.0057 for the first, 0.989 ± 0.029 for the second.

AGTTTGTGTC and AGTTTGTTTT are within error of each other in switch fluorescence ratio: 0.965 ± 0.12 for the first, 0.966 ± 0.049 for the second.

AGTTTTAGAT and AGTTTTATTG are within error of each other in switch fluorescence ratio: 1 ± 0.044 for the first, 0.993 ± 0.026 for the second.

AGTTTTCATT and AGTTTTCTTC are within error of each other in switch fluorescence ratio: 1 ± 0.049 for the first, 0.962 ± 0.041 for the second.

AGTTTTGACC and AGTTTTGGAG are within error of each other in switch fluorescence ratio: 1.03 ± 0.059 for the first, 1 ± 0.015 for the second.

AGTTTTGGTA and AGTTTTGGTG are within error of each other in switch fluorescence ratio: 1.02 ± 0.064 for the first, 0.985 ± 0.01 for the second.

AGTTTTGTGT and AGTTTTTTTG are within error of each other in switch fluorescence ratio: 0.972 ± 0.0098 for the first, 0.99 ± 0.017 for the second.

ATAAAAAACT and ATAAAAAATA are within error of each other in switch fluorescence ratio: 0.984 ± 0.01 for the first, 1 ± 0.025 for the second.

ATAAAAATAT and ATAAAAATGG are within error of each other in switch fluorescence ratio: 1.01 ± 0.035 for the first, 1.004 ± 0.0075 for the second.

ATAAAAATTT and ATAAAAGGAT are within error of each other in switch fluorescence ratio: 1 ± 0.024 for the first, 0.973 ± 0.014 for the second.

ATAAAATAAT and ATAAACAAAG are within error of each other in switch fluorescence ratio: 0.977 ± 0.048 for the first, 0.959 ± 0.015 for the second.

ATAAACCTTA and ATAAAGAATG are within error of each other in switch fluorescence ratio: 1.29 ± 0.28 for the first, 1.01 ± 0.05 for the second.

ATAAAGCTCT and ATAAAGGGGA are within error of each other in switch fluorescence ratio: 1.01 ± 0.019 for the first, 0.984 ± 0.038 for the second.

First: ATAAATTTGC
Second: ATAACAGAGG
The switch fluorescence ratio of the first is lower: 0.968 ± 0.045 for the first, 1.04 ± 0.013 for the second.

First: ATAACATGAC
Second: ATAACGGAGT
The switch fluorescence ratio of the first is higher: 1.21 ± 0.0044 for the first, 0.9902 ± 0.0087 for the second.

ATAACGTCGG and ATAACGTTGA are within error of each other in switch fluorescence ratio: 0.9867 ± 0.0082 for the first, 0.99 ± 0.017 for the second.

ATAAGATTGT and ATAAGCTTCT are within error of each other in switch fluorescence ratio: 0.963 ± 0.058 for the first, 1.09 ± 0.073 for the second.

ATAAGGGAGA and ATAAGGGCCA are within error of each other in switch fluorescence ratio: 1 ± 0.037 for the first, 1.01 ± 0.036 for the second.

ATAAGGGTAA and ATAAGTCAAA are within error of each other in switch fluorescence ratio: 1 ± 0.013 for the first, 0.99 ± 0.016 for the second.

ATAAGTGGTG and ATAAGTTCCG are within error of each other in switch fluorescence ratio: 0.976 ± 0.036 for the first, 0.996 ± 0.028 for the second.

Going from ATAAGTTTTG to ATAATAAGCT, the switch fluorescence ratio rises from 0.978 ± 0.027 to 1.016 ± 0.0073.

ATAATAGAAT and ATAATAGAGT are within error of each other in switch fluorescence ratio: 0.993 ± 0.025 for the first, 1.02 ± 0.024 for the second.

ATAATAGGG and ATAATATAGG are within error of each other in switch fluorescence ratio: 0.9773 ± 0.0019 for the first, 0.99 ± 0.041 for the second.

Compared with ATAATATGTG, ATAATATTTT is higher in switch fluorescence ratio: 0.997 ± 0.029 for the first, 1.031 ± 0.0028 for the second.

ATAATGGTTG and ATAATTACTT are within error of each other in switch fluorescence ratio: 1.04 ± 0.043 for the first, 1.01 ± 0.018 for the second.

ATAATTATA and ATAATTTCTG are within error of each other in switch fluorescence ratio: 1.01 ± 0.018 for the first, 0.99 ± 0.016 for the second.

ATACAAATTT and ATACAAGTAT are the same in switch fluorescence ratio: 0.995 ± 0.047 for the first, 0.995 ± 0.025 for the second.

ATACACATCC and ATACCGAGGA are within error of each other in switch fluorescence ratio: 1.06 ± 0.061 for the first, 1.04 ± 0.051 for the second.

Compared with ATACGAAGGG, ATACGGACGG is higher in switch fluorescence ratio: 0.985 ± 0.059 for the first, 1.4 ± 0.073 for the second.

Going from ATACGGGGGT to ATACGTTGG, the switch fluorescence ratio falls from 1.005 ± 0.0076 to 0.9748 ± 0.0046.

ATACGTTTGG and ATACTATGGT are within error of each other in switch fluorescence ratio: 1.01 ± 0.054 for the first, 0.989 ± 0.038 for the second.

Going from ATACTCAGCC to ATACTGTTGA, the switch fluorescence ratio falls from 1.14 ± 0.041 to 0.973 ± 0.013.

ATACTTGAAC and ATAGAAAACT are within error of each other in switch fluorescence ratio: 1.034 ± 0.0012 for the first, 1.4 ± 0.53 for the second.
